According to US20160305952A1 (ROCHE SEQUENCING SOLUTIONS, published 2016):

How the values were obtained:
streptavidin [1] = biological target: T1, streptavidin (UniProt P22629 37-163, limits assumed); test: SPR
T1 construct: amine-coupled to a CM5 chip for SPR; also called SA
Excerpt: (§1) A selection of streptavidin peptide binders listed in Table 15 were synthesized using standard column-based synthesis techniques by UW Biotechnology center (Madison, Wis.) or by Peptide2.0 (Chantilly, Va.) at 98-99% purity. Strep-tag II peptide NH2-[…]-COOH was purchased from IBA GmbH (Goettingen, Germany). Synthesized peptides were then characterized by Surface Plasmon Resonance (SPR) to identify binding characteristics including the association rate constant (kₛ), dissociation rate constant (kd), and equilibrium dissociation […] (kd/kₐ=KD). In one aspect, SPR experiments were performed by using Biacore X100 instrument (GE Healthcare). Preliminarily, 60 μl of 100 μg/ml streptavidin in 10 mM Na-acetate, pH5.0 was immobilized to flow cell 2 (Fc2) of a sensor chip CM5 (GE Healthcare) using Amine Coupling Kit (GE Healthcare) at 20° C. for 6 min. Peptide stock solutions were prepared at 5 or 10 mM concentration in water and diluted in HBS-EP+ (GE Healthcare) buffer before SPR experiments. Peptide binding was performed in a multiple kinetics mode using HBS-EP+ as a running buffer and 0.2 M NaCl, 10 mM NaOH or 10 mM HCl-glycine, […] as regeneration buffer. Binding kinetics parameters were calculated with Biacore X100 software.

streptavidin [2] = biological target: T1, streptavidin; test: SPR, Biacore X100, streptavidin on CM5 chip, peptide in solution
Excerpt: as §1

streptavidin [3] = biological target: T1, streptavidin; test: SPR, Biacore X100, streptavidin on CM5 chip, peptide in solution; second KD value printed for the same peptide
Excerpt: as §1

T1 sequence (P22629 37-163 limits assumed): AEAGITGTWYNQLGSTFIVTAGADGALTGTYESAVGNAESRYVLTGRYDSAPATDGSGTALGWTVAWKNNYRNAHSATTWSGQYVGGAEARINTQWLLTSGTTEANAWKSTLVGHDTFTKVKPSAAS

| Binder | fold change in KD as compared with the parent peptide … (streptavidin [1]) [fold] | Kd (streptavidin [2]) [µM] | koff (streptavidin [2]) [s⁻¹] | kon (streptavidin [2]) [M⁻¹ s⁻¹] | Kd (streptavidin [3]) [µM] |
| --- | --- | --- | --- | --- | --- |
| H-RDPAPAWAHGGG-NH2 (free peptide) [NH2-RDPAPAWAHGGG-amide] | ≥ 100 | 4.66 | 0.0696 | 14900 | – |
| H-EWVHPQFEQKAK-NH2 (free peptide) [NH2-EWVHPQFEQKAK-amide] | – | 5.68 | – | – | 5.87 |
